Measurements reported in PMC2647517 (Biochemistry, 2008).
Read-outs that look alike come from different tables or passages of the source.

Columns and labels:
SEC [1] = target: the molecule itself; assay: SEC
SEC + cross-linking [2] = target: the molecule itself; assay: SEC + cross-linking
SEC + cross-linking [3] = target: the molecule itself; assay: SEC + cross-linking; remark: listed apart in the source
cross-linking = target: the molecule itself; assay: cross-linking
SEC [4] = target: the molecule itself; assay: SEC; remark: listed apart in the source
[5] = target: the molecule itself

B1: Escherichia coli manganese superoxide dismutase, wild type (apoprotein) (enzyme, UniProt P00448 1-206, looked up)
chain: MSYTLPSLPYAYDALEPHFDKQTMEIHHTKHHQTYVNNANAALESLPEFANLPVEELITKLDQLPADKKTVLRNNAGGHANHSLFWKGLKKGTTLQGDLKAAIERDFGSVDNFKAEFEKAAASRFGSGWAWLVLKGDKLAVVSTANQDSPLMGEAISGASGFPIMGLDVWEHAYYLKFQNRRPDYIKEFWNVVNWDEAAARFAAKK
SEC [1]
  stoichiometry N: 2

B2: EC MnSOD S126C, disulfide form (enzyme, Escherichia coli, UniProt P00448 1-206, looked up)
chain: MSYTLPSLPYAYDALEPHFDKQTMEIHHTKHHQTYVNNANAALESLPEFANLPVEELITKLDQLPADKKTVLRNNAGGHANHSLFWKGLKKGTTLQGDLKAAIERDFGSVDNFKAEFEKAAASRFGCGWAWLVLKGDKLAVVSTANQDSPLMGEAISGASGFPIMGLDVWEHAYYLKFQNRRPDYIKEFWNVVNWDEAAARFAAKK
modifications: disulfide between Cys126 of the two subunits
SEC + cross-linking [2]
  stoichiometry N: 2
SEC + cross-linking [3]
  stoichiometry N: 2

B3: EC MnSOD Y174C, disulfide form (enzyme, Escherichia coli, UniProt P00448 1-206, looked up)
chain: MSYTLPSLPYAYDALEPHFDKQTMEIHHTKHHQTYVNNANAALESLPEFANLPVEELITKLDQLPADKKTVLRNNAGGHANHSLFWKGLKKGTTLQGDLKAAIERDFGSVDNFKAEFEKAAASRFGSGWAWLVLKGDKLAVVSTANQDSPLMGEAISGASGFPIMGLDVWEHAYCLKFQNRRPDYIKEFWNVVNWDEAAARFAAKK
modifications: disulfide between Cys174 of the two subunits
cross-linking
  stoichiometry N: 2

B4: EC MnSOD S126C, free thiol form (enzyme, Escherichia coli, UniProt P00448 1-206, looked up)
chain: MSYTLPSLPYAYDALEPHFDKQTMEIHHTKHHQTYVNNANAALESLPEFANLPVEELITKLDQLPADKKTVLRNNAGGHANHSLFWKGLKKGTTLQGDLKAAIERDFGSVDNFKAEFEKAAASRFGCGWAWLVLKGDKLAVVSTANQDSPLMGEAISGASGFPIMGLDVWEHAYYLKFQNRRPDYIKEFWNVVNWDEAAARFAAKK
modifications: Cys126 as free thiol (0.99 mol SH/mol protein)
SEC [4]
  stoichiometry N: 2

B5: EC MnSOD H171A (enzyme, Escherichia coli, UniProt P00448 1-206, looked up)
chain: MSYTLPSLPYAYDALEPHFDKQTMEIHHTKHHQTYVNNANAALESLPEFANLPVEELITKLDQLPADKKTVLRNNAGGHANHSLFWKGLKKGTTLQGDLKAAIERDFGSVDNFKAEFEKAAASRFGSGWAWLVLKGDKLAVVSTANQDSPLMGEAISGASGFPIMGLDVWEAAYYLKFQNRRPDYIKEFWNVVNWDEAAARFAAKK
[5]
  stoichiometry N: 2

B6: EC MnSOD (S126C/Y174C), double disulfide form (enzyme, Escherichia coli, UniProt P00448 1-206, looked up)
chain: MSYTLPSLPYAYDALEPHFDKQTMEIHHTKHHQTYVNNANAALESLPEFANLPVEELITKLDQLPADKKTVLRNNAGGHANHSLFWKGLKKGTTLQGDLKAAIERDFGSVDNFKAEFEKAAASRFGCGWAWLVLKGDKLAVVSTANQDSPLMGEAISGASGFPIMGLDVWEHAYCLKFQNRRPDYIKEFWNVVNWDEAAARFAAKK
modifications: disulfides between Cys126 and Cys126 and between Cys174 and Cys174 of the two subunits
cross-linking
  stoichiometry N: 2

B7: EC MnSOD E170C, disulfide form (enzyme, Escherichia coli, UniProt P00448 1-206, looked up)
chain: MSYTLPSLPYAYDALEPHFDKQTMEIHHTKHHQTYVNNANAALESLPEFANLPVEELITKLDQLPADKKTVLRNNAGGHANHSLFWKGLKKGTTLQGDLKAAIERDFGSVDNFKAEFEKAAASRFGSGWAWLVLKGDKLAVVSTANQDSPLMGEAISGASGFPIMGLDVWCHAYYLKFQNRRPDYIKEFWNVVNWDEAAARFAAKK
modifications: disulfide between Cys170 of the two subunits
cross-linking
  stoichiometry N: 2
